From patent US20250215412A1 (NOVOZYMES A S, published 2025)
Changes are numbered by the printed parent chain. In names and notes the source's numbering stands. Where two headings read alike, the source gives them in different places.

T1: Chryseobacterium sp-62563 deamidase C169S (Chryseobacterium sp-62563)
T1 sequence: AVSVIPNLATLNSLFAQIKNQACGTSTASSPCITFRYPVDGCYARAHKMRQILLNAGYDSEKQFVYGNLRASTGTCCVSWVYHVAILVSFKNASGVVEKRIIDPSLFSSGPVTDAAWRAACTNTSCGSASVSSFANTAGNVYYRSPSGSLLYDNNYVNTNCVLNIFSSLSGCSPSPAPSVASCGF

T2: Chryseobacterium sp-62563 deamidase C230H (Chryseobacterium sp-62563)
T2 sequence: T1 sequence with S60C, C121H

T3: Chryseobacterium sp-62563 deamidase Q130K (Chryseobacterium sp-62563)
T3 sequence: T1 sequence with Q21K, S60C

T4: Chryseobacterium sp-62563 deamidase Q130L (Chryseobacterium sp-62563)
T4 sequence: T1 sequence with Q21L, S60C

T5: Chryseobacterium sp-62563 deamidase C230N (Chryseobacterium sp-62563)
T5 sequence: T1 sequence with S60C, C121N

T6: Chryseobacterium sp-62563 deamidase Q172V (Chryseobacterium sp-62563)
T6 sequence: T1 sequence with S60C, Q63V

T7: Chryseobacterium sp-62563 deamidase V190M (Chryseobacterium sp-62563)
T7 chain: T1 sequence with S60C, V81M

T8: Chryseobacterium sp-62563 deamidase V190Q (Chryseobacterium sp-62563)
T8 chain: T1 sequence with S60C, V81Q

T9: Chryseobacterium sp-62563 deamidase L260E (Chryseobacterium sp-62563)
T9 chain: T1 sequence with S60C, L151E

T10: Chryseobacterium sp-62563 deamidase S258E (Chryseobacterium sp-62563)
T10 chain: T1 sequence with S60C, S149E

T11: Chryseobacterium sp-62563 deamidase C169S (Chryseobacterium sp-62563)
T11 chain: T1 sequence

T12: Chryseobacterium sp-62563 deamidase V111A (Chryseobacterium sp-62563)
T12 chain: T1 sequence with V2A, S60C

T13: Chryseobacterium sp-62563 deamidase C230S (Chryseobacterium sp-62563)
T13 chain: T1 sequence with S60C, C121S

B1: Chryseobacterium sp-62563 propeptide F99A (protein)
chain: NQDPNLVAKESNETAMKDFGKTVPVGIEKEDGKFKISFMVTAQPYEIKDSKENAAYISMIKTAVENETPIHVFLKANTNEIAKVDKATDDDIRYFKSVATKEVKEENRK
B2: Chryseobacterium sp-62563 propeptide (first polypeptide, propeptide domain), wildtype (other)
chain: B1 chain with A99F

What was measured:
Experiment in all cases: cell-based or functional assay
[1] = biological target: T1, Chryseobacterium sp-62563 deamidase C169S (Chryseobacterium sp-62563)
[2] = biological target: T2, Chryseobacterium sp-62563 deamidase C230H (Chryseobacterium sp-62563)
[3] = biological target: T3, Chryseobacterium sp-62563 deamidase Q130K (Chryseobacterium sp-62563)
[4] = biological target: T4, Chryseobacterium sp-62563 deamidase Q130L (Chryseobacterium sp-62563)
[5] = biological target: T5, Chryseobacterium sp-62563 deamidase C230N (Chryseobacterium sp-62563)
[6] = biological target: T6, Chryseobacterium sp-62563 deamidase Q172V (Chryseobacterium sp-62563)
[7] = biological target: T7, Chryseobacterium sp-62563 deamidase …
[8] = biological target: T8, Chryseobacterium sp-62563 deamidase …
[9] = biological target: T9, Chryseobacterium sp-62563 deamidase …
[10] = biological target: T10, Chryseobacterium sp-62563 deamidase …
[11] = biological target: T11, Chryseobacterium sp-62563 deamidase …
[12] = biological target: T12, Chryseobacterium sp-62563 deamidase …
[13] = biological target: T13, Chryseobacterium sp-62563 deamidase …

| Binder | Leakage activity [1] [%] | Relative activity of maturated deamidase (% initial rate) [1] | Leakage activity [2] [%] | Relative activity of maturated deamidase (% initial rate) [3] | Relative activity of maturated deamidase (% initial rate) [4] | Leakage activity [5] [%] | Relative activity of maturated deamidase (% initial rate) [5] | Relative activity of maturated deamidase (% initial rate) [6] | Relative activity of maturated deamidase [7] [% initial rate] | Relative activity of maturated deamidase [8] [% initial rate] | Relative activity of maturated deamidase [9] [% initial rate] | Relative activity of maturated deamidase [10] [% initial rate] | Leakage activity [11] [%] | Leakage activity [12] [%] | Leakage activity [13] [%] |
| --- | --- | --- | --- | --- | --- | --- | --- | --- | --- | --- | --- | --- | --- | --- | --- |
| B1 | 1 | > 100 | 0 | 92 | > 100 | 0 | 42 | 66 | – | – | – | – | – | – | – |
| B2 | – | – | – | – | – | – | – | – | 44 | 96 | 53 | ≥ 100 | 0 | 0 | 13 |
